Measurements taken from patent US6046014.

Legend:
[1] = target: streptavidin-agarose (immobilized streptavidin) (Streptomyces avidinii) (UniProt P22629); assay: affinity chromatography on streptavidin-agarose
[2] = target: streptavidin-agarose (immobilized streptavidin) (Streptomyces avidinii) (UniProt P22629); assay: affinity chromatography: ammonium sulfate fraction passed over streptavidin-agarose

- binding capacity (µg ASPHYA-ST per milliliter bed volume) [1]: 200
- efficiency of binding [2]: 86%
Substance: Strep-tagged oat phytochrome A (ASPHYA-ST)
